For one substance, phosphorylation of STX1a (S14) in synaptosomes, L-JNKi1 on its own results are on record in patent US20170128524A1.

The assay addresses c-Jun N-terminal Kinase (JNK). Put plainly: cell-based or functional assay.

On to L-JNKi1 (peptide), for which the phosphorylation of STX1a (S14) in synaptosomes, L-JNKi1 on its own is -45%.
